Source: patent publication US20150368301

Test system: Unphosphorylated Nox1 peptide (KLKTQKIYF, "LocKiT")

**Q.** Which “in vitro kinase assay, heat of phosphorylation measured by ITC; dot blot with p-STY antibody” value does the source give for PKC-βI (protein kinase C-βI) here?
**A.** The slope of the reaction following the heat of dilution confirms that the Nox1 peptide is a substrate for PKC-βI
